From patent US20250215412A1 (NOVOZYMES A S, published 2025)
Substitutions are numbered along the chain they refer to. Numbers in names are those of the source.

T1: Chryseobacterium sp-62563 deamidase polypeptide (second polypeptide, deamidase domain), wildtype (Chryseobacterium sp-62563)
T1 sequence: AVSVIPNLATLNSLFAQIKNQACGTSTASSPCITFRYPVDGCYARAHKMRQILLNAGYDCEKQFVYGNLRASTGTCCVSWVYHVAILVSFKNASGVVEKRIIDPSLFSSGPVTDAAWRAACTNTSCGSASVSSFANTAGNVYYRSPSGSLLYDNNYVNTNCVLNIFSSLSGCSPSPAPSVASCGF

B1: Chryseobacterium sp-62563 propeptide V64L (protein)
chain: NQDPNLVAKESNETAMKDFGKTVPVGIEKEDGKFKISFMVTAQPYEIKDSKENAAYISMIKTALENETPIHVFLKANTNEIAKVDKATDDDIRYFKSVFTKEVKEENRK
B2: Chryseobacterium sp-62563 propeptide Y94P (protein)
chain: B1 chain with L64V, Y94P
B3: Chryseobacterium sp-62563 propeptide P69D (protein)
chain: B1 chain with L64V, P69D
B4: Chryseobacterium sp-62563 propeptide F99L (protein)
chain: B1 chain with L64V, F99L
B5: Chryseobacterium sp-62563 propeptide F99P (protein)
chain: B1 chain with L64V, F99P
B6: Chryseobacterium sp-62563 propeptide P69M (protein)
chain: B1 chain with L64V, P69M
B7: Chryseobacterium sp-62563 propeptide F99H (protein)
chain: B1 chain with L64V, F99H
B8: Chryseobacterium sp-62563 propeptide Y45I (protein)
chain: B1 chain with Y45I, L64V
B9: Chryseobacterium sp-62563 propeptide L74S (protein)
chain: B1 chain with L64V, L74S
B10: Chryseobacterium sp-62563 propeptide V7P (protein)
chain: B1 chain with V7P, L64V
B11: Chryseobacterium sp-62563 propeptide F99R (protein)
chain: B1 chain with L64V, F99R
B12: Chryseobacterium sp-62563 propeptide V98S (protein)
chain: B1 chain with L64V, V98S
B13: Chryseobacterium sp-62563 propeptide F95D (protein)
chain: B1 chain with L64V, F95D
B14: Chryseobacterium sp-62563 propeptide R93P (protein)
chain: B1 chain with L64V, R93P
B15: Chryseobacterium sp-62563 propeptide V98Y (protein)
chain: B1 chain with L64V, V98Y
B16: Chryseobacterium sp-62563 propeptide V98Q (protein)
chain: B1 chain with L64V, V98Q
B17: Chryseobacterium sp-62563 propeptide K86G (protein)
chain: B1 chain with L64V, K86G
B18: Chryseobacterium sp-62563 propeptide P69W (protein)
chain: B1 chain with L64V, P69W
B19: Chryseobacterium sp-62563 propeptide Y94Q (protein)
chain: B1 chain with L64V, Y94Q
B20: Chryseobacterium sp-62563 propeptide D90P (protein)
chain: B1 chain with L64V, D90P
B21: Chryseobacterium sp-62563 propeptide F99D (protein)
chain: B1 chain with L64V, F99D
B22: Chryseobacterium sp-62563 propeptide E67P (protein)
chain: B1 chain with L64V, E67P
B23: Chryseobacterium sp-62563 propeptide Y94I (protein)
chain: B1 chain with L64V, Y94I
B24: Chryseobacterium sp-62563 propeptide V98N (protein)
chain: B1 chain with L64V, V98N
B25: Chryseobacterium sp-62563 propeptide V98P (protein)
chain: B1 chain with L64V, V98P
B26: Chryseobacterium sp-62563 propeptide F95G (protein)
chain: B1 chain with L64V, F95G
B27: Chryseobacterium sp-62563 propeptide P69G (protein)
chain: B1 chain with L64V, P69G
B28: Chryseobacterium sp-62563 propeptide F99Q (protein)
chain: B1 chain with L64V, F99Q
B29: Chryseobacterium sp-62563 propeptide F99V (protein)
chain: B1 chain with L64V, F99V
B30: Chryseobacterium sp-62563 propeptide Y45M (protein)
chain: B1 chain with Y45M, L64V
B31: Chryseobacterium sp-62563 propeptide V98R (protein)
chain: B1 chain with L64V, V98R
B32: Chryseobacterium sp-62563 propeptide T88P (protein)
chain: B1 chain with L64V, T88P
B33: Chryseobacterium sp-62563 propeptide Y94A (protein)
chain: B1 chain with L64V, Y94A
B34: Chryseobacterium sp-62563 propeptide F99K (protein)
chain: B1 chain with L64V, F99K
B35: Chryseobacterium sp-62563 propeptide V98K (protein)
chain: B1 chain with L64V, V98K
B36: Chryseobacterium sp-62563 propeptide F99C (protein)
chain: B1 chain with L64V, F99C
B37: Chryseobacterium sp-62563 propeptide F99W (protein)
chain: B1 chain with L64V, F99W
B38: Chryseobacterium sp-62563 propeptide F99I (protein)
chain: B1 chain with L64V, F99I
B39: Chryseobacterium sp-62563 propeptide F73D (protein)
chain: B1 chain with L64V, F73D
B40: Chryseobacterium sp-62563 propeptide P69L (protein)
chain: B1 chain with L64V, P69L
B41: Chryseobacterium sp-62563 propeptide P69Y (protein)
chain: B1 chain with L64V, P69Y
B42: Chryseobacterium sp-62563 propeptide V98M (protein)
chain: B1 chain with L64V, V98M
B43: Chryseobacterium sp-62563 propeptide V98T (protein)
chain: B1 chain with L64V, V98T
B44: Chryseobacterium sp-62563 propeptide Y45R (protein)
chain: B1 chain with Y45R, L64V
B45: Chryseobacterium sp-62563 propeptide Y94E (protein)
chain: B1 chain with L64V, Y94E
B46: Chryseobacterium sp-62563 propeptide F99Y (protein)
chain: B1 chain with L64V, F99Y
B47: Chryseobacterium sp-62563 propeptide A76P (protein)
chain: B1 chain with L64V, A76P
B48: Chryseobacterium sp-62563 propeptide Y94T (protein)
chain: B1 chain with L64V, Y94T
B49: Chryseobacterium sp-62563 propeptide F73T (protein)
chain: B1 chain with L64V, F73T

The binders below were run against T1, Chryseobacterium sp-62563 deamidase polypeptide (second polypeptide, deamidase domain), wildtype (Chryseobacterium sp-62563) (assay: cell-based or functional assay).

Going from B1 to B2, the Leakage activity rises from 0% to 3%.

B9 and B10 are the same in Leakage activity: 0% for the first, 0% for the second.

Going from B11 to B13, the Leakage activity rises from 0% to 7%.

Compared with B14, B15 is lower in Leakage activity: 4% for the first, 0% for the second.

B17 and B18 are the same in Leakage activity: 0% for the first, 0% for the second.

B19 and B20 are the same in Leakage activity: 0% for the first, 0% for the second.

First: B21
Second: B22
The Leakage activity of the first is higher: 9% for the first, 2% for the second.

First: B23
Second: B25
The Leakage activity of the first is lower: 0% for the first, 2% for the second.

Compared with B26, B28 is higher in Leakage activity: 0% for the first, 4% for the second.

B32 and B33 are the same in Leakage activity: 0% for the first, 0% for the second.

Going from B34 to B36, the Leakage activity falls from 4% to 0%.

First: B39
Second: B41
The Leakage activity of the first is higher: 2% for the first, 0% for the second.

First: B45
Second: B47
The Leakage activity of the first is lower: 0% for the first, 3% for the second.

B48 and B49 are the same in Leakage activity: 0% for the first, 0% for the second.

First: B1
Second: B2
The Relative activity of maturated deamidase (% initial rate) of the first is lower: 49 for the first, 76 for the second.

Compared with B3, B4 is lower in Relative activity of maturated deamidase (% initial rate): 82 for the first, 46 for the second.

First: B5
Second: B6
The Relative activity of maturated deamidase (% initial rate) of the first is lower: 33 for the first, 67 for the second.

B7 and B8 cannot be ordered by Relative activity of maturated deamidase (% initial rate): > 100 for the first, > 100 for the second.

Compared with B9, B11 is higher in Relative activity of maturated deamidase (% initial rate): 40 for the first, 76 for the second.

First: B12
Second: B13
The Relative activity of maturated deamidase (% initial rate) of the first is higher: 98 for the first, 44 for the second.

Compared with B14, B15 is lower in Relative activity of maturated deamidase (% initial rate): > 100 for the first, 31 for the second.

First: B16
Second: B17
The Relative activity of maturated deamidase (% initial rate) of the first is higher: > 100 for the first, 34 for the second.

First: B18
Second: B20
The Relative activity of maturated deamidase (% initial rate) of the first is higher: > 100 for the first, 55 for the second.

First: B21
Second: B22
The Relative activity of maturated deamidase (% initial rate) of the first is higher: 69 for the first, 53 for the second.

Compared with B23, B24 is higher in Relative activity of maturated deamidase (% initial rate): 60 for the first, > 100 for the second.

Going from B25 to B26, the Relative activity of maturated deamidase (% initial rate) falls from > 100 to 91.

First: B27
Second: B28
The Relative activity of maturated deamidase (% initial rate) of the first is lower: 35 for the first, 48 for the second.

First: B29
Second: B30
The Relative activity of maturated deamidase (% initial rate) of the first is higher: > 100 for the first, 40 for the second.

Going from B31 to B32, the Relative activity of maturated deamidase (% initial rate) falls from > 100 to 46.

First: B33
Second: B34
The Relative activity of maturated deamidase (% initial rate) of the first is lower: 72 for the first, > 100 for the second.

Compared with B35, B36 is lower in Relative activity of maturated deamidase (% initial rate): > 100 for the first, 52 for the second.

First: B37
Second: B38
The Relative activity of maturated deamidase (% initial rate) of the first is higher: 81 for the first, 33 for the second.

Going from B39 to B40, the Relative activity of maturated deamidase (% initial rate) rises from 31 to 43.

First: B41
Second: B42
The Relative activity of maturated deamidase (% initial rate) of the first is higher: > 100 for the first, 41 for the second.

Going from B43 to B46, the Relative activity of maturated deamidase (% initial rate) rises from 70 to 85.

Compared with B48, B49 is lower in Relative activity of maturated deamidase (% initial rate): > 100 for the first, 42 for the second.

Compared with B2, B3 is lower in NanoDSF thermal unfolding temperature: 75.2 ° C for the first, 70.6 ° C for the second.

Going from B6 to B8, the NanoDSF thermal unfolding temperature falls from 79.1 ° C to 76.4 ° C.

Compared with B27, B30 is higher in NanoDSF thermal unfolding temperature: 77 ° C for the first, 79 ° C for the second.

First: B34
Second: B40
The NanoDSF thermal unfolding temperature of the first is lower: 75.4 ° C for the first, 81.5 ° C for the second.

B44 was tested, and the NanoDSF thermal unfolding temperature was 78.1 ° C.
